The assay deals with recombinant Dnmt1 protein (Dnmt1^R), not treated with a kinase (human) (UniProt P26358).
Sequence of UniProt P26358 (P26358 whole entry): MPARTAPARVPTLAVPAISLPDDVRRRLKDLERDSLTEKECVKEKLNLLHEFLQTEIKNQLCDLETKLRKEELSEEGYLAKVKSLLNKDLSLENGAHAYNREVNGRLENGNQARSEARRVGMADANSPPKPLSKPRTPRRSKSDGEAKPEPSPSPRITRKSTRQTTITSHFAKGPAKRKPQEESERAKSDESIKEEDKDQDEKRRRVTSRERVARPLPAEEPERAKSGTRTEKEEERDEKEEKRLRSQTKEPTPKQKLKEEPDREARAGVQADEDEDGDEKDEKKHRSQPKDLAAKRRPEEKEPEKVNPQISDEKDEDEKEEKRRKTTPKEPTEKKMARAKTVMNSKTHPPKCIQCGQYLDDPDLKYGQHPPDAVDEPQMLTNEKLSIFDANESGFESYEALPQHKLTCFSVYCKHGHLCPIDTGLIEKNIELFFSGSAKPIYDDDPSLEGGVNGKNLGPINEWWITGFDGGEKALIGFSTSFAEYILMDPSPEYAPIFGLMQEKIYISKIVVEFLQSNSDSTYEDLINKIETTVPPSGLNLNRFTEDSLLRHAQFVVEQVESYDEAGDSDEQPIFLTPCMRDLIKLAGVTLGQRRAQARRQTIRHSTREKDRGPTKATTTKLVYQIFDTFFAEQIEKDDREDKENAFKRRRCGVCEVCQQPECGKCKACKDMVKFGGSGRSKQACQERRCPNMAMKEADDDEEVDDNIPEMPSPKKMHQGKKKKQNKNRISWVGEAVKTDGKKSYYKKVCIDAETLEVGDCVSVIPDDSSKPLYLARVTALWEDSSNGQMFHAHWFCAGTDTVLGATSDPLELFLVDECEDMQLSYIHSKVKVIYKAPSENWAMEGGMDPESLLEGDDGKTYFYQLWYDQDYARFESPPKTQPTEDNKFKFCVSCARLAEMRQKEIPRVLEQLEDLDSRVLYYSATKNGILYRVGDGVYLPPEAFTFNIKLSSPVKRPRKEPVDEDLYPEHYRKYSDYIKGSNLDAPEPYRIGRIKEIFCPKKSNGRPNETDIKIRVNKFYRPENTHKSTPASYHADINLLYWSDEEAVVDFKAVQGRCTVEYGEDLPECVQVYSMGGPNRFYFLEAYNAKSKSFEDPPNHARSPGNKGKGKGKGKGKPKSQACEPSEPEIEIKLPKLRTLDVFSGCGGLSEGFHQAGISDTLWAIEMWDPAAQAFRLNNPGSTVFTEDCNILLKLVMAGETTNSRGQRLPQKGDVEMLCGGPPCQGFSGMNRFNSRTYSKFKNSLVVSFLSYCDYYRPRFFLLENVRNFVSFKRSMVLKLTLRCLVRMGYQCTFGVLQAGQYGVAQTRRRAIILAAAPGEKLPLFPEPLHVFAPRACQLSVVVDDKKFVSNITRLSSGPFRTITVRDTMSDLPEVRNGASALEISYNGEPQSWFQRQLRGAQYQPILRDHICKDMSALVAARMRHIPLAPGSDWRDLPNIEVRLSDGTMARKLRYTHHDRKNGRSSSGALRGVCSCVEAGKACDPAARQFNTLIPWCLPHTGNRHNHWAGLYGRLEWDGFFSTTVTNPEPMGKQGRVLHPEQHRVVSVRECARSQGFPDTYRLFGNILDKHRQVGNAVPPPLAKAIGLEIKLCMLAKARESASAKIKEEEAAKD

Regarding “GST-PCNA (from UniProt P12004 1-261) (natural protein)”, the mMTase activity (DMB assay, incorporation of 3H-radiolabelled methyl groups) of Dnmt1 with an equimolar quantity of PCNA, against that of pDnmt1^S127/S143 and pDnmt1^S127 amounted to 5 fold.

For the substance “GST-UHRF1 (from UniProt Q96T88 1-793) (natural protein)”, the mMTase activity (DMB assay, incorporation of 3H-radiolabelled methyl groups) of Dnmt1 with an equimolar quantity of UHRF1, against that of pDnmt1^S127/S143 and pDnmt1^S127 is 4 fold.

Source of the values: publication PMC2894052.
